{"source": "patent US20250042956A1", "about": "(University of California, published 2025)", "binders": {"B1": {"name": "TRBIP2 (bait of the TRBIP2 IP-MS) (other, not shown: small tags and cut ends)", "chain": "MATNACLESDSLLPPRKRLLAGFKNQNSRISNESPSPPFASSSSSTTTSNGSSASAVVHTHHLDHLLNDQTRSPEELAQASKATAALAVKVAKAARATANEKAIIASKAVAAAKNALELFASFPAAETVSCKEPRLIRAINNSPRVLTDCSGHRNKKQKTLTSTMNDGNDVAGVVDSDDGTRVNGKLLLCDNTLKEKTEEESSSLGKRRGRVKLPLSMCAYKDQENGITLEENNLSVSKSEGYNGGVAQVIERPSWKCQDLKSPECVKQNKVVRS", "notes": "tag and its position not described; also called TRBIP2-1; TRBIP2-2"}}, "key": {"[1]": {"target": "T1, AT2G23380.1 CLF (Arabidopsis thaliana, UniProt P93831 1-902)", "T1 construct": "Endogenous protein found by mass spectrometry; also called CURLY LEAF", "T1 sequence (looked up)": "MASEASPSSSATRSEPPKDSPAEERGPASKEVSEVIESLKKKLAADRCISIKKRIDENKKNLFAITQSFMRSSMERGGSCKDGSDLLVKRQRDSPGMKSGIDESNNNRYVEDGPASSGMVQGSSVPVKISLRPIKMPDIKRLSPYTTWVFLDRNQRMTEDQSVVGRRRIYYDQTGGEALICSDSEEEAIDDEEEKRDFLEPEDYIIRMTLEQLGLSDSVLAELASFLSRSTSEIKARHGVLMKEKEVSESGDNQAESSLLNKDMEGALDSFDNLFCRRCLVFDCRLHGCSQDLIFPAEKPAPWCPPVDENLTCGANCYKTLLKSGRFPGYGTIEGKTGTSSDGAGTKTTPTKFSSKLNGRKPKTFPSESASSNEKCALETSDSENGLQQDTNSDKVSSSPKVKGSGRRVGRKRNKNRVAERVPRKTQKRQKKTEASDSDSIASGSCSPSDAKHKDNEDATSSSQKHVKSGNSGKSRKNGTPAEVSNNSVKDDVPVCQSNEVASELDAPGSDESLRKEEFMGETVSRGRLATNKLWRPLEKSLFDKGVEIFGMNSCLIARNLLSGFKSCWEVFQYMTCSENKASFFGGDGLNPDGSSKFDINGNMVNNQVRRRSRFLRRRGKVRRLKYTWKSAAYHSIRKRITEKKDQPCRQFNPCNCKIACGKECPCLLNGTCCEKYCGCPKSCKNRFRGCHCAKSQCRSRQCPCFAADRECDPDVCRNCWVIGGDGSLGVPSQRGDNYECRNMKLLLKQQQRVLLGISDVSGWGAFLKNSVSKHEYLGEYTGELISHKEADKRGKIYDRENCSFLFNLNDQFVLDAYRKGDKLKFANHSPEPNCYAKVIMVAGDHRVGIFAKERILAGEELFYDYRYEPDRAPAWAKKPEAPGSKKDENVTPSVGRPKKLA", "assay": "IP-MS rep 2", "how_it_was_run": "(§1)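 Ten grams of unopened floral buds from Col-0 wild type and FLAG-tagged transgenic Arabidopsis lines were ground in liquid nitrogen, homogenised in 25 mL IP buffer and filtered through Miracloth. Lysates were incubated with 250 μL anti-FLAG M2 magnetic beads at 4° C for 2 hours, washed and eluted with TBS containing 250 μg/mL 3×FLAG peptides. Eluted proteins were precipitated with trichloroacetic acid and analysed by mass spectrometry to give peptide counts for co-purified proteins.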"}, "[2]": {"target": "T2, AT5G51230.1 EMF2 (Arabidopsis thaliana, UniProt Q8L6Y4 1-631)", "T2 construct": "Endogenous protein found by mass spectrometry; also called EMBRYONIC FLOWER 2", "T2 sequence (looked up)": "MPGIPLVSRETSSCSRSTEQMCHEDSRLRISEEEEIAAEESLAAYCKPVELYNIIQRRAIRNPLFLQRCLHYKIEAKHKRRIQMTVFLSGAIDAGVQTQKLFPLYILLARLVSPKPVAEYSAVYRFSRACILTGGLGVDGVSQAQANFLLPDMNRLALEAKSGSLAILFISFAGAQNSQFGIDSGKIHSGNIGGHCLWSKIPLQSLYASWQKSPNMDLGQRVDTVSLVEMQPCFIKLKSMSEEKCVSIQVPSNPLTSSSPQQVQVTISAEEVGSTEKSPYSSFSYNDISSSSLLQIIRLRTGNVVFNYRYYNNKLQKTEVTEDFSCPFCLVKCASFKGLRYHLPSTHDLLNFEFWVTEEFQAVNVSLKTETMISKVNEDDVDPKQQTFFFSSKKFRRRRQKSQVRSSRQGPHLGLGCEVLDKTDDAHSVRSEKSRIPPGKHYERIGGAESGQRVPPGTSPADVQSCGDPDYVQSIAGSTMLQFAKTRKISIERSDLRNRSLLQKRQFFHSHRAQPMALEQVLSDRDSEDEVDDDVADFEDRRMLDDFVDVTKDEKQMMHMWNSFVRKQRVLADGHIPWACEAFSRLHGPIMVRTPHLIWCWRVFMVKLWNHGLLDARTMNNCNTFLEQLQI", "assay": "IP-MS rep 2", "how_it_was_run": "as §1"}, "[3]": {"target": "T3, AT1G49950.3 TRB1 (Arabidopsis thaliana, UniProt Q8VWK4 1-300, limits assumed)", "T3 construct": "Endogenous protein found by mass spectrometry", "T3 sequence": "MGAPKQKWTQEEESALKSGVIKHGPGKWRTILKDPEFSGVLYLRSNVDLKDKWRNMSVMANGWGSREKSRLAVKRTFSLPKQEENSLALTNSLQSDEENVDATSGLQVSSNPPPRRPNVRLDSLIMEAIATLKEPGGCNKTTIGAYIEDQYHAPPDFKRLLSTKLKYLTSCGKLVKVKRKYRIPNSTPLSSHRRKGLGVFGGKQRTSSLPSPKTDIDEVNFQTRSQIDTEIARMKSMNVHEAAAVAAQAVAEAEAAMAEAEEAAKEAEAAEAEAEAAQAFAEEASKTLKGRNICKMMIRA", "assay": "IP-MS rep 1", "how_it_was_run": "as §1"}, "[4]": {"target": "T4, AT4G35510.1 TRBIP1 (Arabidopsis thaliana)", "T4 construct": "Endogenous protein found by mass spectrometry", "T4 chain": "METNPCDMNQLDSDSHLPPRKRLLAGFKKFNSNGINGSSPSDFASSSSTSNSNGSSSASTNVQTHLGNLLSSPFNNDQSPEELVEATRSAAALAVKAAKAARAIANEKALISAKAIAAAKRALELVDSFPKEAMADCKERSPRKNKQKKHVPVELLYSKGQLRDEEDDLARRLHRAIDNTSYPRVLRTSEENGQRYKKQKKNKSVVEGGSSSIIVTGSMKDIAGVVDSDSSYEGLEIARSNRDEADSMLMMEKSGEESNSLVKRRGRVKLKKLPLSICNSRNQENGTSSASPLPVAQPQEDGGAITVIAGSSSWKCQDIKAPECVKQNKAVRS", "assay": "IP-MS rep 1", "how_it_was_run": "as §1"}, "[5]": {"target": "T5, AT3G49850.1 TRB3 (Arabidopsis thaliana, UniProt Q9M2X3 1-295)", "T5 construct": "Endogenous protein found by mass spectrometry", "T5 sequence": "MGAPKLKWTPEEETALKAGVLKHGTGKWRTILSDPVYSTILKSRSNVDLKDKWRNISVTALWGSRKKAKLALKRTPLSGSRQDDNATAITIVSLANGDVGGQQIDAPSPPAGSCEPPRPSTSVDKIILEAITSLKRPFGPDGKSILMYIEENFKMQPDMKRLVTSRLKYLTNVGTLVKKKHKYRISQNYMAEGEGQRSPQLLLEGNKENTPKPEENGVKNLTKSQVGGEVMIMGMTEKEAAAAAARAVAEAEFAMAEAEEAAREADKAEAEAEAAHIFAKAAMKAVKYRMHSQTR", "assay": "IP-MS rep 1", "how_it_was_run": "as §1"}}, "data": [{"binder": "B1", "values": [{"measurement": "IP-MS count", "setting": "[1]", "result": 0}, {"measurement": "IP-MS count", "setting": "[2]", "result": 0}, {"measurement": "IP-MS count", "setting": "[3]", "result": 26}, {"measurement": "IP-MS count", "setting": "[4]", "result": 1}, {"measurement": "IP-MS count", "setting": "[5]", "result": 8}]}]}
